Source: the supplement of paper PMC10724198
± gives the standard deviation of the averaged measurements.
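Further: PSI is a weighted mean of sequencing reads over stability bins, variants kept only with over 10 reads, mCherry proximal and sfGFP distal, peptide attached via GGGS linker.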

What follows are sequences tested on Saccharomyces cerevisiae (assay: protein stability index of tFT-peptide fusion (C-terminal peptide) (PSI (0-1 scale)); higher = more stable (slower turnover)). Details: genetic background: wild type; temperature: 30 C.
Sequence RGEHKDYFYVMT has a protein stability index of 0.651 ± 0.0076.
Work on RGEMGLAPTGGD yielded a protein stability index of 0.651 ± 0.044.
For RGFCGGLWRPGV, the protein stability index was 0.769 ± 0.013.
For RGGDIEVPSDQN, the protein stability index was 0.705 ± 0.019.
RGGGCNGVSVEG showed a protein stability index of 0.6899 ± 0.0027.
In the case of RGGGGGGSRTGA, the protein stability index is reported as 0.706 ± 0.026.
Work on RGGGGGVECRVG yielded a protein stability index of 0.655 ± 0.075.
RGGGGPGWGSRG showed a protein stability index of 0.684 ± 0.025.
For RGGGRRAWVWGG, the protein stability index was 0.675 ± 0.036.
Sequence RGGGVWGKEDSQ has a protein stability index of 0.717 ± 0.052.
Sequence RGGLDQVHKGFR has a protein stability index of 0.711 ± 0.086.
RGGSGGRKCLGV showed a protein stability index of 0.687 ± 0.0094.
RGGSGGSCMRYV showed a protein stability index of 0.678 ± 0.066.
RGGTGGWKGVWV showed a protein stability index of 0.71 ± 0.022.
For RGISAAAAPGEG, the protein stability index was 0.706 ± 0.024.
RGKEREGGRQER gave a protein stability index of 0.746 ± 0.045.
RGLIVGMGAGMV showed a protein stability index of 0.671 ± 0.015.
For RGLNIPRLSCRY, the protein stability index was 0.748 ± 0.008.
RGPKDNGGSETS showed a protein stability index of 0.713 ± 0.078.
RGPPCPFPVPLP gave a protein stability index of 0.74 ± 0.033.
RGPRWETVSSCM showed a protein stability index of 0.682 ± 0.027.
RGRASVIWGGPG gave a protein stability index of 0.659 ± 0.086.
With RGRDTETFSDNS the protein stability index was 0.6901 ± 0.0054.
In the case of RGRLRGPEPKMT, the protein stability index is reported as 0.726 ± 0.078.
RGRRGAGRKGGP gave a protein stability index of 0.751 ± 0.15.
In the case of RGRWLIVHCPTQ, the protein stability index is reported as 0.605 ± 0.034.
With RGSGSGTRCRRS the protein stability index was 0.682 ± 0.11.
RGTGGGSESGVK showed a protein stability index of 0.661 ± 0.063.
RGTWAVGGGRGG showed a protein stability index of 0.671 ± 0.065.
Work on RGVALWALYGAG yielded a protein stability index of 0.76502 ± 0.00052.
For RGVSRQVRTVDP, the protein stability index was 0.679 ± 0.03.
With RGVSVRLSLAYR the protein stability index was 0.6216 ± 0.0048.
Sequence RGWARGRQGCGG has a protein stability index of 0.726 ± 0.011.
RGWWVLWGGGWG was tested, and the protein stability index was 0.551 ± 0.025.
In the case of RHARAARDSPRR, the protein stability index is reported as 0.705 ± 0.081.
Work on RHGFTNINGIKH yielded a protein stability index of 0.714 ± 0.012.
RHGVQMAGLKRR gave a protein stability index of 0.679 ± 0.019.
Work on RHLMNYEKRNAN yielded a protein stability index of 0.723 ± 0.053.
Sequence RHNKVSPNARYN has a protein stability index of 0.661 ± 0.027.
RHPSVLPLSILL gave a protein stability index of 0.653 ± 0.054.
For RHSPGPLLTPAP, the protein stability index was 0.712 ± 0.045.
Sequence RHTPPTTPLSLL has a protein stability index of 0.701 ± 0.096.
For RICIGSLHGASI, the protein stability index was 0.576 ± 0.019.
For RICPEVSSVLIR, the protein stability index was 0.682 ± 0.035.
Work on RIFFTCDSFLCV yielded a protein stability index of 0.611 ± 0.04.
RIGICSTNTSLQ showed a protein stability index of 0.722 ± 0.067.
RIGYGEGWKKGG gave a protein stability index of 0.695 ± 0.067.
Sequence RIINRIDNKIEK has a protein stability index of 0.672 ± 0.0039.
In the case of RIKKTRVVRQKM, the protein stability index is reported as 0.547 ± 0.04.
RILLSHGNSRSI gave a protein stability index of 0.699 ± 0.013.
For RINKRKKKKDKG, the protein stability index was 0.6136 ± 0.00074.
For RIQIKIKRTKNK, the protein stability index was 0.638 ± 0.11.
With RIRRERRIGLKV the protein stability index was 0.559 ± 0.0092.
Work on RISGDVNCLSPR yielded a protein stability index of 0.718 ± 0.066.
For RISGVEKPLLRV, the protein stability index was 0.663 ± 0.015.
RITRVRNKEQSK was tested, and the protein stability index was 0.692 ± 0.016.
For RIVMSSDHTFQG, the protein stability index was 0.635 ± 0.0072.
Sequence RKAKHWKNKIQK has a protein stability index of 0.737 ± 0.048.
RKCPRVCVFQSS was tested, and the protein stability index was 0.557 ± 0.017.
For RKDEKEMVRKTK, the protein stability index was 0.682 ± 0.061.
Work on RKGRETGTKERE yielded a protein stability index of 0.671 ± 0.036.
Work on RKHIANPTDQND yielded a protein stability index of 0.673 ± 0.019.
RKHLIPRPTSNP was tested, and the protein stability index was 0.71 ± 0.011.
With RKICINIEKKGE the protein stability index was 0.682 ± 0.018.
RKIRIDKQRKVK gave a protein stability index of 0.716 ± 0.033.
For RKKKKKLKKKTE, the protein stability index was 0.66 ± 0.082.
RKKRNKTQTSKT gave a protein stability index of 0.6936 ± 0.00054.
For RKKRYRRRKIKK, the protein stability index was 0.773 ± 0.025.
For RKLFLKNELGSK, the protein stability index was 0.7 ± 0.14.
In the case of RKLKNKTKREII, the protein stability index is reported as 0.653 ± 0.0068.
Sequence RKMRNGRKRKKK has a protein stability index of 0.62 ± 0.025.
With RKNNTVIKQIKR the protein stability index was 0.656 ± 0.054.
In the case of RKRKIKQYITTT, the protein stability index is reported as 0.725 ± 0.043.
RKVGRVGGGRLE was tested, and the protein stability index was 0.637 ± 0.018.
RKVHNVETQITA was tested, and the protein stability index was 0.648 ± 0.018.
For RKVRRTRNSEGE, the protein stability index was 0.726 ± 0.011.
RLAAPPRYPPLP gave a protein stability index of 0.731 ± 0.12.
Work on RLATRPILDLPP yielded a protein stability index of 0.519 ± 0.026.
For RLAVLKGWTTFV, the protein stability index was 0.567 ± 0.039.
RLAYSSGKAFRV was tested, and the protein stability index was 0.702 ± 0.012.
RLCPGAALAFRG showed a protein stability index of 0.718 ± 0.12.
Sequence RLCRQPPSLLPP has a protein stability index of 0.6958 ± 0.0053.
Work on RLEFSFHPFFLS yielded a protein stability index of 0.658 ± 0.02.
In the case of RLFAPSHSSSLP, the protein stability index is reported as 0.733 ± 0.055.
For RLFLGSIGTLTS, the protein stability index was 0.673 ± 0.046.
RLFLSFVDRRSL was tested, and the protein stability index was 0.629 ± 0.06.
Sequence RLFSPFTLPPFF has a protein stability index of 0.739 ± 0.063.
Sequence RLFSYLSTLSFI has a protein stability index of 0.727 ± 0.053.
In the case of RLGGAACLRSEC, the protein stability index is reported as 0.627 ± 0.04.
With RLGLVITKLGVY the protein stability index was 0.541 ± 0.0081.
Work on RLGNVYSTSFQC yielded a protein stability index of 0.618 ± 0.012.
For RLGRGRRGMRWL, the protein stability index was 0.659 ± 0.025.
RLHFSSPLLHPP was tested, and the protein stability index was 0.601 ± 0.041.
Sequence RLHPSFPPPPPQ has a protein stability index of 0.704 ± 0.029.
Work on RLIGLLRKTSKK yielded a protein stability index of 0.719 ± 0.089.
RLLSGLAHRATR gave a protein stability index of 0.672 ± 0.032.
In the case of RLNKPRAPEKKA, the protein stability index is reported as 0.717 ± 0.11.
In the case of RLNQSKSTKYSE, the protein stability index is reported as 0.651 ± 0.012.
Work on RLPPPLALDFRP yielded a protein stability index of 0.6308 ± 0.0063.
With RLPRSPLHPSVP the protein stability index was 0.738 ± 0.016.
Sequence RLPVIPRLIPSS has a protein stability index of 0.635 ± 0.028.
Work on RLPVPRSLWSSN yielded a protein stability index of 0.709 ± 0.013.
Work on RLRAFSRSVSSP yielded a protein stability index of 0.734 ± 0.11.
Sequence RLRCRRPKPRRC has a protein stability index of 0.682 ± 0.035.
For RLRRPSSGPFMF, the protein stability index was 0.685 ± 0.037.
RLSTPPAPQRPS gave a protein stability index of 0.666 ± 0.013.
Sequence RLTPLSSSRLPP has a protein stability index of 0.6556 ± 0.0043.
Work on RLVGCWGRVKFE yielded a protein stability index of 0.6927 ± 0.003.
RLVGPFSSLRLF was tested, and the protein stability index was 0.649 ± 0.0072.
Sequence RLYGCNYAQSRR has a protein stability index of 0.712 ± 0.047.
With RMGWTRCRGGYG the protein stability index was 0.5865 ± 0.0044.
RMTRIKKKINKS gave a protein stability index of 0.719 ± 0.034.
RNAGIQVTGQAF gave a protein stability index of 0.704 ± 0.0079.
RNKKKAKKEENR showed a protein stability index of 0.664 ± 0.048.
RNKNYIDEEKER gave a protein stability index of 0.661 ± 0.037.
With RNLFRRAPNQGL the protein stability index was 0.723 ± 0.043.
RNLPAHQARPDE was tested, and the protein stability index was 0.6751 ± 0.003.
For RNNLSLALPREW, the protein stability index was 0.725 ± 0.018.
In the case of RNRYCNLRVGFD, the protein stability index is reported as 0.679 ± 0.011.
With RNTRVSLPPRGQ the protein stability index was 0.63 ± 0.041.
RNVKETSNRREL was tested, and the protein stability index was 0.627 ± 0.11.
With RPDACTRFGLRV the protein stability index was 0.678 ± 0.013.
RPGLWGNEVGGN gave a protein stability index of 0.735 ± 0.013.
In the case of RPGNGLTLPTAS, the protein stability index is reported as 0.622 ± 0.072.
RPKGREKGEGRG gave a protein stability index of 0.733 ± 0.077.
RPLCRSFPPASL showed a protein stability index of 0.788 ± 0.058.
In the case of RPLLHPRTGRSH, the protein stability index is reported as 0.677 ± 0.014.
Sequence RPLLPPVLPPPL has a protein stability index of 0.684 ± 0.019.
With RPLLPYHPTRFD the protein stability index was 0.721 ± 0.048.
RPLSPPRPPPPS showed a protein stability index of 0.678 ± 0.014.
With RPPGPPPPAPFP the protein stability index was 0.711 ± 0.015.
RPPHQAPPLPPS showed a protein stability index of 0.704 ± 0.062.
Work on RPPHRRRDKKVS yielded a protein stability index of 0.701 ± 0.031.
Sequence RPPPPPHRTGDC has a protein stability index of 0.607 ± 0.02.
With RPPPPPPPRFPP the protein stability index was 0.706 ± 0.041.
With RPPPRPASPGSP the protein stability index was 0.634 ± 0.039.
RPQHSPSVLVSY was tested, and the protein stability index was 0.5884 ± 0.005.
RPRSPRSLPPPP was tested, and the protein stability index was 0.541 ± 0.043.
Sequence RPRVAVPHTSLP has a protein stability index of 0.714 ± 0.069.
With RPSPSLPSPSPP the protein stability index was 0.843 ± 0.081.
Sequence RPTRPCSTPTAP has a protein stability index of 0.78 ± 0.012.
Sequence RPYLARQTTAPS has a protein stability index of 0.6575 ± 0.0033.
RQAIGRDTPRDP gave a protein stability index of 0.649 ± 0.0073.
RQGHKRVKISGM was tested, and the protein stability index was 0.599 ± 0.091.
In the case of RQKTKRKDQKIK, the protein stability index is reported as 0.709 ± 0.023.
For RQSSPPPRIAPT, the protein stability index was 0.6783 ± 0.0057.
